In patent US20200377595A1 (Chugai, published 2020):
Substitutions are numbered along the chain they refer to. In names and notes the source's numbering stands.

Legend:
human CD137 = target: T1, human CD137 (human, UniProt Q07011 24-186); experiment: ECL, IgG with biotinylated antigen on streptavidin plate, log axis
T1 construct: soluble Biacore analyte; also called hCD137; recombinant human CD137

recombinant human CD3 = target: T2, recombinant human CD3 (human); experiment: SPR, Ab captured by anti-Fc, 37 C
T2 construct: also called hCD3

[1] = target: T3, biotin-labeled cynomolgus monkey CD137 fused to human IgG1 Fc fragment (cynomolgus monkey; human, UniProt Q07011 24-186, limits assumed, biotin-labeled); experiment: ELISA, IgG
T3 construct: also called cyno CD137-Fc; not shown: human IgG1 Fc fragment
T3 chain: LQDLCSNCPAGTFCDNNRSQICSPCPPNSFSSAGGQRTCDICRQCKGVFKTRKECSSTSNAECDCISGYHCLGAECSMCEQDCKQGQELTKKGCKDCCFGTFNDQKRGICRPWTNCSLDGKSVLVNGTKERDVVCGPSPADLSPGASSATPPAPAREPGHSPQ

[2] = target: T4, biotin-labeled human CD137 fused to human IgG1 Fc fragment (human, biotin-labeled); experiment: bead ELISA; no competitor
T4 construct: also called human CD137-Fc; biotin-human CD137-Fc

B1: dBBDu_011 (antibody, V domains shown)
VH: QVQLVESGGGLVQPGRSLRLSCAASGFTFSNAWMHWVRQAPGKGLEWVAQIKDKSSLYNTYYAPSVKGRFTISRDDSKNSIYLQMNSLKTEDTAVYYCRYVHYGASYGFLFAGYGVDAWGQGTTVTVSS
VL: DIVMTQSPLSLPVTPGEPASISCRSSQSLVHSNRNTYLHWYQQKPGQAPRLLIYKVSNRFSGVPDRFSGSGSGTDFTLKISRVEAEDVGVYYCGQGTQVPYTFGQGTKLEIK
notes: converted to IgG with human H and L chain constant domains; also called clone 011
binding result (human CD137): binds

B2: GPC3/CD137xCD3 trispecific antibody (other)
VH 1: QVQLQQWGAGLLKPSETLSLTCAVYGGSFSGYYWSWIRQSPEKGLEWIGEINHGGYVTYNPSLESRVTISVDTSKNQFSLKLSSVTAADTAVYYCARDYGPGNYDWYFDLWGRGTLVTVSS
VL 1: EIVLTQSPATLSLSPGERATLSCRASQSVSSYLAWYQQKPGQAPRLLIYDASNRATGIPARFSGSGSGTDFTLTISSLEPEDFAVYYCQQRSNWPPALTFGGGTKVEIK
VH 2: QVQLVESGGGLVQPGRSLRLSCAASGFTFSNAWMHWVRQAPGKGLEWVAQIKDRANSYNTYYAESVKGRFTISRDDSKNSIYLQMNSLKTEDTAVYYCRYVHYTTYAGSSFSYGVDAWGQGTTVTVSS
VL 2: B1 VL with S28P
VH 3: QVQLVQSGAEVKKPGASVTVSCKASGYTFTDYEMHWIRQPPGEGLEWIGAIDGPTPDTAYSEKFKGRVTLTADKSTSTAYMELSSLTSEDTAVYYCTRFYSYTYWGQGTLVTVSS
VL 3: B1 VL with S28P
notes: mAb AB made by CrossMab and Fab-arm exchange; silent Fc (L235R, G236R, S239K, N297A); also called anti-GPC3/CD137xCD3
Kd (recombinant human CD3): 0.0197 µM
koff (recombinant human CD3): 0.00161 s⁻¹
kon (recombinant human CD3): 81800 M⁻¹ s⁻¹

B3: dBBDu181 (antibody, IgG1, V domains shown)
VH: QVQLVESGGGLVQPGRSLRLSCAASGFTFSNAWMHWVRQAPGKGLEWIAQIKDRGNNYNNYYAPSVKGRFTISRDDSKNSIYLQMNSLKTEDTAVYYCHYVHYATASTLLGAYGVDAWGQGTTVTVSS
VL: B1 VL
notes: IgG1
binding result [1]: binds
ELISA signal [2]: 3240
